Data as given in patent publication US6265535A, “Peptides and peptide analogues designed from binding sites of tumor necrosis factor receptor superfamily and their uses” (The Trustees of the University of Pennsylvania, priority 1997, dated 2001).
Bridge positions count the residues as written; N and C are the ends. Ends that are not written are not given here.

Key:
[1] = biological target: T1, TNF-α binding to TNF-R p55 expressed on U937 cells (Homo sapiens, UniProt P01375); test: Flow cytometry (FACS) of TNF-α binding to its cognate receptor on U937 cells, detected with anti-TNF-R antibody htr-9; assay type: cell-based; settings: FIG. 6
T1 construct: endogenous in cells; host or cells: U937 (human leukemia cell line)
T1 sequence (P01375 77-233 limits assumed): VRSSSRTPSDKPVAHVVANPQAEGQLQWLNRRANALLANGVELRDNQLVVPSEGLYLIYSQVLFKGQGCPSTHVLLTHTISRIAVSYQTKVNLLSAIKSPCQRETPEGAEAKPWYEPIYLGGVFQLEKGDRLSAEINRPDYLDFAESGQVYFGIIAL
Excerpt: FIG. 5. […] 1=U937 cells stained with fluorescein-conjugated secondary antibody. 2=U937 cells stained with an anti-TNF receptor antibody (htr-9) and secondary antibody. 3=U937 cells stained with anti-TNF-R antibody in the presence of TNF-α and secondary antibody.
FIG. 6. […] The results represent the means from two independent experiments.
A human leukemia cell line, U937, was maintained in RPMI-1640 medium supplemented with 10% FCS. In order to quantitate the binding of TNF-α to its cognate receptor expressed on U937 cells, 1×10^5 cells were re-suspended in PBS containing 0.5% BSA and 0.05% NaN3 (binding buffer). […] Then, 50 μl of an anti-TNF receptor antibody at 3 μg/ml in binding buffer were added to the cells for 1 hr. at 4° C. The cells were washed in binding buffer and stained with 50 μl (10 μg/ml) of fluorescein-conjugated goat ant-mouse IgG secondary antibody (GIBCO BRL, Gaithersburg, Md.) for 30 min. at 4° C. in the dark. Following washing in binding buffer, the cells were analyzed using FACScan flow cytometer (Becton Dickinson). The gates were set on the live cell population, and the degree of inhibition of TNF-α/cell binding by peptides was calculated on the basis of mean values of each histogram.

L929 cells = test: Cytotoxicity assay: inhibition of TNF-α-induced cytolysis of L929 cells (MTT); assay type: cell-based, murine; settings: FIG. 7
Procedure: FIG. 7. Inhibition of TNF-α-induced cytolysis of L929 cells by peptides derived from TNF-R. […] A murine fibroblast cell line, L929, was maintained in Dulbecco's modified Eagle's medium supplemented with 10% FCS, and the medium was replaced with serum free AIM-V medium (GIBCO BRL) immediately before the cells were used for the cytotoxicity assay. L929 cells were seeded at a density of 2×10^5 cells/ml in 96-well microtiter plates, and incubated for hr. at 37° C. under 5% CO2 in air. […] Immunol. Methods 119:203). Briefly, 10 μl of a 10 mg/ml solution of MTT were added to each well for 2 hr. at 37° C., and the color of the formazan product was developed by an overnight incubation at 37° C. with 100 μl of extraction buffer (20% SDS in 50% DMF, pH 4.7). The optical density of colored formazan was measured at 600 nm.

Human recombinant TNF-α [2] = biological target: T2, Human recombinant TNF-α (human, UniProt P01375); test: flow cytometry on U937 cells, TNF-α preincubated with peptide, read out with htr-9
Human recombinant TNF-α [3] = biological target: T2, Human recombinant TNF-α; test: competitive radioreceptor assay, dose-response, 125I-TNF-α on immobilized TNF-R-IgG
Human recombinant TNF-α [4] = biological target: T2, Human recombinant TNF-α; test: competitive radioreceptor assay, 125I-TNF-α on immobilized TNF-R-IgG

YC ASENH CY (YCASENHCY; disulfide 2-8 (inferred)) [WP5JY, exocyclic peptide from TNF-R loop 1 of domain 2]
inhibition of TNF-α binding to U937 cells in dose-response assay (in words) [1]: inhibited by each peptide in a dose-dependent manner

YC WSQNL CY (YCWSQNLCY; disulfide 2-8 (inferred)) [WP9Q, exocyclic peptide from TNF-R loop 1 of domain 3, Gln instead of Glu]
inhibition of TNF-α-induced cytotoxicity of L929 cells (in words) (L929 cells): dose-dependent inhibitory activity
inhibitory effect on TNF-α-induced cytotoxicity relative to WP9QY (L929 cells): about half of the effects of WP9QY
inhibition of TNF-α binding to U937 cells in dose-response assay (in words) [1]: inhibited by each peptide in a dose-dependent manner

CC(C)C[C@@H]1NC(=O)[C@H](Cc2ccc(O)cc2)NC(=O)[C@H](CCC(N)=O)NC(=O)[C@H](CO)NC(=O)[C@H](Cc2c[nH]c3ccccc23)NC(=O)[C@@H](NC(=O)[C@@H](N)Cc2ccc(O)cc2)CSSC[C@@H](C(=O)N[C@@H](Cc2ccc(O)cc2)C(=O)O)NC1=O [WP9QY, YC WSQYL CY]
cells protected against TNF-α-induced apoptosis/cytotoxicity (L929 cells; peptide at 75 μM, TNF-α 50 pg/ml plus ACT-D 1 μg/ml): ~90%

YCWSQYLCY (disulfide 2-8 (inferred)) [WP9QY]
IC50 (Human recombinant TNF-α [2]): 75 µM
IC50 (Human recombinant TNF-α [3]): 5 µM

YCWSQNLCY (disulfide 2-8 (inferred)) [WP9Q]
fold activity against the best WP5 peptides (Human recombinant TNF-α [4]): 2 fold
